The target in one data set is T1, TvDAAO (Trigonopsis variabilis, UniProt Q99042).
T1 construct: gene DAO1; FAD-containing; no tag mentioned
Briefly: horseradish peroxidase / ABTS coupled assay, […] nm. Conditions: 0.05 M potassium phosphate pH 8.0, 30 °C, air saturated; read-out: wt-TvDAAO / KM. Type of data set: biochemical.

Substrate in data set [1]: [H][C@]12SCC(COC(C)=O)=C(C(=O)O)N1C(=O)[C@H]2NC(=O)CCC[C@@H](N)C(=O)O
Nature of the data set: CPC consumption by HPLC, initial rates. In kind it is biochemical, Trigonopsis variabilis. The settings on record: 0.1 M potassium phosphate pH 8.0, 30 °C, air saturated. An excerpt:
CPC consumption by HPLC, initial rates on TvDAAO

Substrate in data set [2]: CSCC[C@@H](N)C(=O)O
Briefly: purified protein. Type of data set: biochemical, Trigonopsis variabilis. Conditions: 0.05 M potassium phosphate pH 8.0, 30 °C, air saturated.

Substrate in data set [3]: CC(C)C[C@@H](N)C(=O)O
Briefly: purified protein. The settings on record: 0.05 M potassium phosphate pH 8.0, 30 °C, air saturated.

Substrate in data set [4]: NC(=O)C[C@@H](N)C(=O)O
Briefly: purified protein. Conditions: 0.05 M potassium phosphate pH 8.0, 30 °C, air saturated.

Substrate in data set [5]: CC(C)[C@@H](N)C(=O)O
Nature of the data set: purified protein. The settings on record: 0.05 M potassium phosphate pH 8.0, 30 °C, air saturated.

Substrate in data set [6]: C[C@@H](N)C(=O)O
Nature of the data set: purified protein. Conditions: 0.05 M potassium phosphate pH 8.0, 30 °C, air saturated.

For the molecule `N[C@H](CO)C(=O)O` [D-Ser], at TvDAAO, the Km worked out at 37000 µM.
Turning to `NCCCC[C@@H](N)C(=O)O` [D-Lys], the Km on TvDAAO is 29000 µM.
Still for that read-out and setting: to `CSCC[C@@H](N)C(=O)O` [D-Met] belongs 460 µM; to `N[C@H](Cc1c[nH]c2ccccc12)C(=O)O` [D-Trp], 490 µM; to `N[C@H](Cc1ccc(O)cc1)C(=O)O` [D-Tyr], 450 µM.
Same read-out and setting: to `N[C@H](Cc1ccccc1)C(=O)O` [D-Phe] belongs 370 µM; to `C[C@H](O)[C@@H](N)C(=O)O` [D-Thr], 11000 µM.

B1: TvDAAO (Trigonopsis variabilis; C108F/C298Q/E32R/F33D/F54S/M156L) (protein)
chain: MAKIVVIGAGVAGLTTALQLLRKGHEVTIVSRDTPGDLSIGYTSPWAGANWLTSYDGGKLADYDAVSYPILRELARSSPEAGIRLISQRSHVLKRDLPKLEVAMSAIFQRNPWFKNTVDSFEIIEDRSRIVHDDVAYLVEFRSVCIHTGVYLNWLLSQCLSLGATVVKRRVNHIKDANLLHSSGSRPDVIVNCSGLFARFLGGVEDKKMYPIRGQVVLVRNSLPFMASFSSTPEKENEDEALYIMTRFDGTSIIGGCFQPNNWSSEPDPSLTHRILSRALDRFPELTKDGPLDIVREQVGHRPGREGGPRVELEKIPGVGFVVHNYGAAGAGYQSSYGMADEAVSYVERALTRPNL
notes: FAD-containing; no tag mentioned
With B1, in data set [1], the Km was found to be 1400 ± 300 µM, the kcat is 68 ± 0.5 s⁻¹ and the kcat/Km came out at 50000 ± 9000 M⁻¹ s⁻¹.

B2: TvDAAO (Trigonopsis variabilis; C108F/C298N/E32R/F33D/F54S/M156L) (protein)
chain: MAKIVVIGAGVAGLTTALQLLRKGHEVTIVSRDTPGDLSIGYTSPWAGANWLTSYDGGKLADYDAVSYPILRELARSSPEAGIRLISQRSHVLKRDLPKLEVAMSAIFQRNPWFKNTVDSFEIIEDRSRIVHDDVAYLVEFRSVCIHTGVYLNWLLSQCLSLGATVVKRRVNHIKDANLLHSSGSRPDVIVNCSGLFARFLGGVEDKKMYPIRGQVVLVRNSLPFMASFSSTPEKENEDEALYIMTRFDGTSIIGGCFQPNNWSSEPDPSLTHRILSRALDRFPELTKDGPLDIVRENVGHRPGREGGPRVELEKIPGVGFVVHNYGAAGAGYQSSYGMADEAVSYVERALTRPNL
notes: as for B1
As to B2, in the data set “purified protein [2]”, the Km amounted to 1400 µM and the kcat came out at 41 s⁻¹. Besides, in data set [1], the Km was 2900 ± 500 µM, the kcat was found to be 121 ± 15 s⁻¹ and the kcat/Km worked out at 42000 ± 8000 M⁻¹ s⁻¹.

B3: TvDAAO (Trigonopsis variabilis; C108F/F54S/M156L) (protein)
chain: MAKIVVIGAGVAGLTTALQLLRKGHEVTIVSEFTPGDLSIGYTSPWAGANWLTSYDGGKLADYDAVSYPILRELARSSPEAGIRLISQRSHVLKRDLPKLEVAMSAIFQRNPWFKNTVDSFEIIEDRSRIVHDDVAYLVEFRSVCIHTGVYLNWLLSQCLSLGATVVKRRVNHIKDANLLHSSGSRPDVIVNCSGLFARFLGGVEDKKMYPIRGQVVLVRNSLPFMASFSSTPEKENEDEALYIMTRFDGTSIIGGCFQPNNWSSEPDPSLTHRILSRALDRFPELTKDGPLDIVRECVGHRPGREGGPRVELEKIPGVGFVVHNYGAAGAGYQSSYGMADEAVSYVERALTRPNL
notes: as for B1
On to B3, for which, in data set [1], the Km was determined as 1900 ± 600 µM, the kcat is 119 ± 7 s⁻¹ and the kcat/Km was 60000 ± 20000 M⁻¹ s⁻¹.

B4: TvDAAO (Trigonopsis variabilis; C108F/E32R/F33D/F54S) (protein)
chain: MAKIVVIGAGVAGLTTALQLLRKGHEVTIVSRDTPGDLSIGYTSPWAGANWLTSYDGGKLADYDAVSYPILRELARSSPEAGIRLISQRSHVLKRDLPKLEVAMSAIFQRNPWFKNTVDSFEIIEDRSRIVHDDVAYLVEFRSVCIHTGVYLNWLMSQCLSLGATVVKRRVNHIKDANLLHSSGSRPDVIVNCSGLFARFLGGVEDKKMYPIRGQVVLVRNSLPFMASFSSTPEKENEDEALYIMTRFDGTSIIGGCFQPNNWSSEPDPSLTHRILSRALDRFPELTKDGPLDIVRECVGHRPGREGGPRVELEKIPGVGFVVHNYGAAGAGYQSSYGMADEAVSYVERALTRPNL
notes: as for B1
For the molecule B4, in data set [1], the Km stood at 1900 ± 400 µM, the kcat stood at 88 ± 10 s⁻¹ and the kcat/Km was found to be 45000 ± 11000 M⁻¹ s⁻¹.

B5: TvDAAO (Trigonopsis variabilis; C108F/C298G/E32R/F33D/F54S/M156L) (protein)
chain: MAKIVVIGAGVAGLTTALQLLRKGHEVTIVSRDTPGDLSIGYTSPWAGANWLTSYDGGKLADYDAVSYPILRELARSSPEAGIRLISQRSHVLKRDLPKLEVAMSAIFQRNPWFKNTVDSFEIIEDRSRIVHDDVAYLVEFRSVCIHTGVYLNWLLSQCLSLGATVVKRRVNHIKDANLLHSSGSRPDVIVNCSGLFARFLGGVEDKKMYPIRGQVVLVRNSLPFMASFSSTPEKENEDEALYIMTRFDGTSIIGGCFQPNNWSSEPDPSLTHRILSRALDRFPELTKDGPLDIVREGVGHRPGREGGPRVELEKIPGVGFVVHNYGAAGAGYQSSYGMADEAVSYVERALTRPNL
notes: as for B1
On to B5, for which, in data set [1], the Km was found to be 800 ± 200 µM, the kcat was determined as 65 ± 5 s⁻¹ and the kcat/Km came out at 79000 ± 15000 M⁻¹ s⁻¹.

B6: TvDAAO (Trigonopsis variabilis; C108F/E32R/F33D/F54S/M156L) (protein)
chain: MAKIVVIGAGVAGLTTALQLLRKGHEVTIVSRDTPGDLSIGYTSPWAGANWLTSYDGGKLADYDAVSYPILRELARSSPEAGIRLISQRSHVLKRDLPKLEVAMSAIFQRNPWFKNTVDSFEIIEDRSRIVHDDVAYLVEFRSVCIHTGVYLNWLLSQCLSLGATVVKRRVNHIKDANLLHSSGSRPDVIVNCSGLFARFLGGVEDKKMYPIRGQVVLVRNSLPFMASFSSTPEKENEDEALYIMTRFDGTSIIGGCFQPNNWSSEPDPSLTHRILSRALDRFPELTKDGPLDIVRECVGHRPGREGGPRVELEKIPGVGFVVHNYGAAGAGYQSSYGMADEAVSYVERALTRPNL
notes: as for B1
For B6, in data set [1], the Km stood at 1600 ± 300 µM, the kcat was 106 ± 9 s⁻¹ and the kcat/Km came out at 66000 ± 12000 M⁻¹ s⁻¹.

B7: TvDAAO (Trigonopsis variabilis) (protein)
chain: MAKIVVIGAGVAGLTTALQLLRKGHEVTIVSEFTPGDLSIGYTSPWAGANWLTFYDGGKLADYDAVSYPILRELARSSPEAGIRLISQRSHVLKRDLPKLEVAMSAICQRNPWFKNTVDSFEIIEDRSRIVHDDVAYLVEFRSVCIHTGVYLNWLMSQCLSLGATVVKRRVNHIKDANLLHSSGSRPDVIVNCSGLFARFLGGVEDKKMYPIRGQVVLVRNSLPFMASFSSTPEKENEDEALYIMTRFDGTSIIGGCFQPNNWSSEPDPSLTHRILSRALDRFPELTKDGPLDIVRECVGHRPGREGGPRVELEKIPGVGFVVHNYGAAGAGYQSSYGMADEAVSYVERALTRPNL
notes: as for B1
Regarding B7, the Km in the data set “purified protein [3]” stood at 400 µM; in “purified protein [4]”, 23000 µM; in “purified protein [5]”, 14000 µM; in the data set “purified protein [6]”, 17000 µM; in data set [1], 1400 ± 400 µM. The kcat in the data set “purified protein [3]” came out at 29 s⁻¹; in the data set “purified protein [4]”, 62 s⁻¹; in the data set “purified protein [5]” it was 85 s⁻¹; in the data set “purified protein [6]”, 109 s⁻¹; in data set [1] it was 26 ± 3 s⁻¹. For the same molecule, the kcat/Km in data set [1] came out at 18000 ± 5000 M⁻¹ s⁻¹.

B8: TvDAAO (Trigonopsis variabilis; C108F/E32R/F33D) (protein)
chain: MAKIVVIGAGVAGLTTALQLLRKGHEVTIVSRDTPGDLSIGYTSPWAGANWLTFYDGGKLADYDAVSYPILRELARSSPEAGIRLISQRSHVLKRDLPKLEVAMSAIFQRNPWFKNTVDSFEIIEDRSRIVHDDVAYLVEFRSVCIHTGVYLNWLMSQCLSLGATVVKRRVNHIKDANLLHSSGSRPDVIVNCSGLFARFLGGVEDKKMYPIRGQVVLVRNSLPFMASFSSTPEKENEDEALYIMTRFDGTSIIGGCFQPNNWSSEPDPSLTHRILSRALDRFPELTKDGPLDIVRECVGHRPGREGGPRVELEKIPGVGFVVHNYGAAGAGYQSSYGMADEAVSYVERALTRPNL
notes: as for B1
Regarding B8, in data set [1], the Km is 1150 ± 80 µM, the kcat is 25.5 ± 1.4 s⁻¹ and the kcat/Km was 22000 ± 2000 M⁻¹ s⁻¹.

The values are drawn from publication PMC6770189, “Multipoint TvDAAO Mutants for Cephalosporin C Bioconversion” (International Journal of Molecular Sciences, 2019).
